Laboratory results reported in patent US20230212319A1, “NOVEL ANTIGEN BINDING DOMAINS AND SYNTHETIC ANTIGEN RECEPTORS INCORPORATING THE SAME” (University of Southern California, priority 2020, published 2023).

B1: 22229 (protein)
chain: MALPVTALLLPLALLLHAARPACEVQLLESGGGLIQPGGSLRLSCAASGFTFSSHAMTWVRQAPGKGLEWVSAISGSGDYTHYADSVKGRFTISRDNSKNTVYLQMNSLRAEDSAVYYCAKDEDGGSLLGHRGQGTLVTVSSGTGAIGFLRTAEFDIQMTQSPSSLSASVGDRVTITCKASDHINNWLAWYQQKPGQAPKLLIYGATTLETGVPSRFSGSGSGTDYTLTISSLQPEDFATYYCQQSWNTPWTFGQGTKLEIKRLEDLKNVFPPEVAVFEPSKAEIAHTQKATLVCLATGFYPDHVELSWWVNGKEVHSGVCTDPQPLKEQPALNDSRYCLSSRLRVSATFWQNPRNHFRCQVQFYGLSENDEWTQDRAKPVTQIVSAEAWGRADCGITSASYHQGVLSATILYEILLGKATLYAVLVSALVLMAMVKRKDSRGRAKRSGSGATNFSLLKQAGDVEENPGPTSATMDWIWRILFLVGAATGAHSGPEVQLVESGGGLVQAGGSLRLSCAASGRTFSMGWFRQAPGKEREFVAAITYSGGSPYYADSVKGRFTISRDNAKNTVYLQMNSLKPEDTAVYYCAANPTYGSDWNAENWGQGTQVTVSSGSGGGGSGGGGSGGGGSFEQVQLQQPGAELVKPGASVKMSCKASGYAFSSYWINWMKQKPGQGLEWIGQIYPGDGDTNYNGKFKGRATLTADTSSSTAYMQLSSLTSEDSAVYFCARSITTVVGCAMDYWGQGTSVTVSSTRIQNPDPAVYQLRDSKSSDKSVCLFTDFDSQTNVSQSKDSDVYITDKCVLDMRSMDFKSNSAVAWSNKSDFACANAFNNSIIPEDTFFPSPESSCDVKLVEKSFETDTNLNFQNLSVIGFRILLLKVAGFNLLMTLRLWSSRAKRSGSGVKQTLNFDLLKLAGDVESNPGPSRGHMTEYKPTVRLATRDDVPRAVRTLAAAFADYPATRHTVDPDRHIERVTELQELFLTRVGLDIGKVWVADDGAAVAVWTTPESVEAGAVFAEIGPRMAELSGSRLAAQQQMEGLLAPHRPKEPAWFLATVGVSPDHQGKGLGSAVVLPGVEAAERAGVPAFLETSAPRNLPFYERLGFTVTADVEVPEGPRTWCMTRKPGA
B2: 22130 (protein)
chain: MALPVTALLLPLALLLHAARPACEVQLLESGGGLIQPGGSLRLSCAASGFTFSSHAMTWVRQAPGKGLEWVSAISGSGDYTHYADSVKGRFTISRDNSKNTVYLQMNSLRAEDSAVYYCAKDEDGGSLLGHRGQGTLVTVSSGTGGGGSGGGGSGGGGSEFDIQMTQSPSSLSASVGDRVTITCKASDHINNWLAWYQQKPGQAPKLLIYGATTLETGVPSRFSGSGSGTDYTLTISSLQPEDFATYYCQQSWNTPWTFGQGTKLEIKRLEDLKNVFPPEVAVFEPSKAEIAHTQKATLVCLATGFYPDHVELSWWVNGKEVHSGVCTDPQPLKEQPALNDSRYCLSSRLRVSATFWQNPRNHFRCQVQFYGLSENDEWTQDRAKPVTQIVSAEAWGRADCGITSASYHQGVLSATILYEILLGKATLYAVLVSALVLMAMVKRKDSRGRAKRSGSGATNFSLLKQAGDVEENPGPTSATMDWIWRILFLVGAATGAHSGPQVQLQESGGGLAQAGGSLRLSCAASGRTFSMGWFRQAPGKEREFVAAITYSGGSPYYASSVRGRFTISRDNAKNTVYLQMNSLKPEDTAVYYCAANPTYGSDWNAENWGQGTQVTVSSGSGGGGSGGGGSGGGGSFEQVQLQQPGAELVKPGASVKMSCKASGYAFSSYWINWMKQKPGQGLEWIGQIYPGDGDTNYNGKFKGRATLTADTSSSTAYMQLSSLTSEDSAVYFCARSITTVVGCAMDYWGQGTSVTVSSTRIQNPDPAVYQLRDSKSSDKSVCLFTDFDSQTNVSQSKDSDVYITDKCVLDMRSMDFKSNSAVAWSNKSDFACANAFNNSIIPEDTFFPSSDVPCDVKLVEKSFETDTNLNFQNLSVIGFRILLLKVAGFNLLMTLRLWSSRAKRSGSGVKQTLNFDLLKLAGDVESNPGPSRGHMTEYKPTVRLATRDDVPRAVRTLAAAFADYPATRHTVDPDRHIERVTELQELFLTRVGLDIGKVWVADDGAAVAVWTTPESVEAGAVFAEIGPRMAELSGSRLAAQQQMEGLLAPHRPKEPAWFLATVGVSPDHQGKGLGSAVVLPGVEAAERAGVPAFLETSAPRNLPFYERLGFTVTADVEVPEGPRTWCMTRKPGA
B3: 22108 (protein)
chain: MALPVTALLLPLALLLHAARPQVQLVESGGGLVQPGGSLRLSCAASGFTFTNHAMSWVRQAPGKGLELVSSISGNGRTTYYADSVKGRFTISRDISKNTLDLQMNSLRAEDTAVYYCAKDGGETLVDSRGQGTLVTVSSGTGGGGSGGGGSGGGGSEFDIQMTQSPSSLSASVGDRVTITCKASDHINNWLAWYQQKPGQAPKLLIYGATTLETGVPSRFSGSGSGTDYTLTISSLQPEDFATYYCQQSWNTPWTFGQGTKLEIKRLEDLKNVFPPEVAVFEPSEAEISHTQKATLVCLATGFYPDHVELSWWVNGKEVHSGVCTDPQPLKEQPALNDSRYCLSSRLRVSATFWQNPRNHFRCQVQFYGLSENDEWTQDRAKPVTQIVSAEAWGRADCGFTSESYQQGVLSATILYEILLGKATLYAVLVSALVLMAMVKRKDSRGRAKRSGSGATNFSLLKQAGDVEENPGPTSMDWIWRILFLVGAATGAHSFEQVQLQQPGAELVKPGASVKMSCKASGYAFSSYWINWMKQKPGQGLEWIGQIYPGDGDTNYNGKFKGRATLTADTSSSTAYMQLSSLTSEDSAVYFCARSITTVVGCAMDYWGQGTSVTVSSTRIQNPDPAVYQLRDSKSSDKSVCLFTDFDSQTNVSQSKDSDVYITDKCVLDMRSMDFKSNSAVAWSNKSDFACANAFNNSIIPEDTFFPSPESSCDVKLVEKSFETDTNLNFQNLSVIGFRILLLKVAGFNLLMTLRLWSSRAKRSGSGVKQTLNFDLLKLAGDVESNPGPSRGHMTEYKPTVRLATRDDVPRAVRTLAAAFADYPATRHTVDPDRHIERVTELQELFLTRVGLDIGKVWVADDGAAVAVWTTPESVEAGAVFAEIGPRMAELSGSRLAAQQQMEGLLAPHRPKEPAWFLATVGVSPDHQGKGLGSAVVLPGVEAAERAGVPAFLETSAPRNLPFYERLGFTVTADVEVPEGPRTWCMTRKPGA
B4: 22116 (protein)
chain: MALPVTALLLPLALLLHAARPQVQLVESGGGLVQPGGSLRLSCAASGFTFTNHAMSWVRQAPGKGLELVSSISGNGRTTYYADSVKGRFTISRDISKNTLDLQMNSLRAEDTAVYYCAKDGGETLVDSRGQGTLVTVSSLEIQNPDPAVYQLRDSKSSDKSVCLFTDFDSQTNVSQSKDSDVYITDKCVLDMRSMDFKSNSAVAWSNKSDFACANAFNNSIIPEDTFFPSSDVPCDVKLVEKSFETDTNLNFQNLSVIGFRILLLKVAGFNLLMTLRLWSSRAKRSGSGVKQTLNFDLLKLAGDVESNPGPTSTMALPVTALLLPLALLLHAARPQVQLVESGGGLVQPGGSLRLSCAASGFTFTNHAMSWVRQAPGKGLELVSSISGNGRTTYYADSVKGRFTISRDISKNTLDLQMNSLRAEDTAVYYCAKDGGETLVDSRGQGTLVTVSSLESGGGGSFEQVQLQQPGAELVKPGASVKMSCKASGYAFSSYWINWMKQKPGQGLEWIGQIYPGDGDTNYNGKFKGRATLTADTSSSTAYMQLSSLTSEDSAVYFCARSITTVVGCAMDYWGQGTSVTVSSTREDLKNVFPPEVAVFEPSKAEIAHTQKATLVCLATGFYPDHVELSWWVNGKEVHSGVCTDPQPLKEQPALNDSRYCLSSRLRVSATFWQNPRNHFRCQVQFYGLSENDEWTQDRAKPVTQIVSAEAWGRADCGITSASYHQGVLSATILYEILLGKATLYAVLVSALVLMAMVKRKDSRGRAKRSGSGATNFSLLKQAGDVEENPGPSRGHMTEYKPTVRLATRDDVPRAVRTLAAAFADYPATRHTVDPDRHIERVTELQELFLTRVGLDIGKVWVADDGAAVAVWTTPESVEAGAVFAEIGPRMAELSGSRLAAQQQMEGLLAPHRPKEPAWFLATVGVSPDHQGKGLGSAVVLPGVEAAERAGVPAFLETSAPRNLPFYERLGFTVTADVEVPEGPRTWCMTRKPGA

Columns and labels:
Assay type in all cases: cell-based
RAJI cells = assay: JNG assay, co-culture with RAJI cells; settings: JNG cells expressing construct, co-culture with Raji
Outline: (§1)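 Jurkat-NFAT-GFP (JNG) cells stably expressing SAR constructs via lentiviral transduction and puromycin/blasticidin selection were cocultured with target cells at E:T ~1:2 for ~4–18 h. NFAT-driven GFP was measured by FACS versus parental JNG cells; scores +/- to 5+ denote ~5–50% GFP-positive cells.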

RAJI-CD19-KO cells = assay: JNG assay, co-culture with RAJI-CD19-KO cells; settings: co-culture with Raji-CD19-KO
Outline: as §1

RS;411 = assay: JNG assay, co-culture with RS;411 cells; settings: co-culture with RS411
Outline: as §1

L363 cells = assay: JNG assay, co-culture with L363 cells; settings: co-culture with L363
Outline: as §1

Nalm6 cells = assay: JNG assay, co-culture with Nalm6 cells; settings: co-culture with Nalm6
Outline: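 Jurkat NFAT-GFP reporter cells stably expressing lentivirally delivered SARs (puromycin or blasticidin selection) were cocultured with target cells at E:T ~1:2 for ~4–18 h. GFP was read by FACS, and % GFP+ cells were scored against parental reporter cells (+/-, +, 2+…5+ ≈ 5%, 10%, 20%…50%).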

Row | Molecule | NFAT-GFP ASSAY: Raji (RAJI cells) | NFAT-GFP ASSAY: Raji-CD19-KO (RAJI-CD19-KO cells) | NFAT-GFP ASSAY: RS411 (RS;411) | NFAT-GFP ASSAY: L363 (L363 cells) | NFAT-GFP ASSAY: Nalm6 (Nalm6 cells)
1 | B1 | 3+ (refer to approximately 5%, 10%, 20%, 30%, 40% and 50% GFP positive cells) | 5+ (refer to approximately 5%, 10%, 20%, 30%, 40% and 50% GFP positive cells) | 2+ (refer to approximately 5%, 10%, 20%, 30%, 40% and 50% GFP positive cells) | – | –
2 | B2 | 4+ (refer to approximately 5%, 10%, 20%, 30%, 40% and 50% GFP positive cells) | 5+ (refer to approximately 5%, 10%, 20%, 30%, 40% and 50% GFP positive cells) | 4+ (refer to approximately 5%, 10%, 20%, 30%, 40% and 50% GFP positive cells) | 5+ (refer to approximately 5%, 10%, 20%, 30%, 40% and 50% GFP positive cells) | –
3 | B3 | 4+ (refer to approximately 5%, 10%, 20%, 30%, 40% and 50% GFP positive cells) | 3+ (refer to approximately 5%, 10%, 20%, 30%, 40% and 50% GFP positive cells) | 5+ (refer to approximately 5%, 10%, 20%, 30%, 40% and 50% GFP positive cells) | – | –
4 | B4 | 3+ (refer to approximately 5%, 10%, 20%, 30%, 40% and 50% GFP positive cells) | 2+ (refer to approximately 5%, 10%, 20%, 30%, 40% and 50% GFP positive cells) | 2+ (refer to approximately 5%, 10%, 20%, 30%, 40% and 50% GFP positive cells) | – | 3+ (refer to approximately 5%, 10%, 20%, 30%, 40% and 50% GFP positive cells)
